Experimental data from PMC7294595.

Molecular target: flu-pTyr (gp130-derived phosphopeptide) (Homo sapiens)

B1: STAT3 127-711, P40763 (protein)
chain: GQANHPTAAVVTEKQQMLEQHLQDVRKRVQDLEQKMKVVENLQDDFDFNYKTLKSQGDMQDLNGNNQSVTRQKMQQLEQMLTALDQMRRSIVSELAGLLSAMEYVQKTLTDEELADWKRRQQIACIGGPPNICLDRLENWITSLAESQLQTRQQIKKLEELQQKVSYKGDPIVQHRPMLEERIVELFRNLMKSAFVVERQPCMPMHPDRPLVIKTGVQFTTKVRLLVKFPELNYQLKIKVCIDKDSGDVAALRGSRKFNILGTNTKVMNMEESNNGSLSAEFKHLTLREQRCGNGGRANCDASLIVTEELHLITFETEVYHQGLKIDLETHSLPVVVISNICQMPNAWASILWYNMLTNNPKNVNFFTKPPIGTWDQVAEVLSWQFSSTTKRGLSIEQLTTLAEKLLGPGVNYSGCQITWAKFCKENMAGKGFSFWVWLDNIIDLVKKYILALWNEGYIMGFISKERERAILSTKPPGTFLLRFSESSKEGGVTFTWVEKDISGKTQIQSVEPYTKQQLNNMSFAEIIMGYKIMDATNILVSPLVYLYPDIPKEEAFGKYCRPESQEHPEADPGSAAPYLKTKFI
With B1 as the binder, how does the Kd read?
Its Kd is 60 nM.
